Source: patent publication US11491212

system: plasma purified human AT-III (antithrombin III); test: same assay; ratio of K0.5 to Catalyst Biosciences WT FIXa

| Substance | K0.5-mut/K0.5-wt [fold] |
| --- | --- |
| BeneFIX Coagulation Factor IX (Recombinant), activated (FIXa) | 0.9 |
| FIXa A103N/N105S | 1.1 |
| FIXa D85N | 1.1 |
| FIXa D104N/K106S | 0.9 |
| FIXa K106N/V108S | 1.6 |

system: CB 2679d (modified FIX R318Y/R338E/T343R, SEQ ID NO:394), mature single-chain zymogen form; test: not given
Sequence (chain, as listed by the source R318Y R338E T343R): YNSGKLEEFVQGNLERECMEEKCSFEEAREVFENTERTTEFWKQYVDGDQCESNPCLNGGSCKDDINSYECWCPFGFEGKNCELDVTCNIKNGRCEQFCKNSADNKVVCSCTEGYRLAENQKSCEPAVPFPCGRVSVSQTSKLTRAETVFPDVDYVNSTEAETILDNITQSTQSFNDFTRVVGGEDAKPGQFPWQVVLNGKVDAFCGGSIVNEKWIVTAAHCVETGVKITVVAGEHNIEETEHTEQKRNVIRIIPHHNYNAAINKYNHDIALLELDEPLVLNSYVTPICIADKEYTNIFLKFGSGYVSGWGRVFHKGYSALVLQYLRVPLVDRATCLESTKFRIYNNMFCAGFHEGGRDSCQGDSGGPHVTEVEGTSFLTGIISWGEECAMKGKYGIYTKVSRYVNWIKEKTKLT

| Substance | activation rate and extent of activation by factor XIa/calcium |
| --- | --- |
| activated Factor XI (FXIa; Heamatologic Technologies, Inc.) | The activation rate of the polypeptide of SEQ ID NO:394 (CB 2679d) by factor XIa/calcium and the extent of activation (approximately 100%) were equivalent to those of commercial lots of BeneFIX® |
